Molecular target: HA70 of BoNT/A (full-length, residues M1–N626) (Clostridium botulinum strain 62A (BoNT/A1-producing))
Test: ITC; […] ([…]) […] (400 µM) […]; 23°C; 50 mM Tris pH 7.6, 100 mM NaCl; […]

Substance “synthetic nLoop peptide of NTNHA (from UniProt Q45914 116-148)” has a Kd of 340 nM and a stoichiometry N (nLoop per HA70 trimer) of 1.

Reference: article PMC3795040
